For this data set the following is noted: Homo sapiens, pH 2.8, Thermal, DSC, glycine-HCl 50 mM, reversible: yes, whole UniProt chain shown.

The term Tm denotes the temperature at the midpoint of the melting transition.

B1: Lysozyme C wild type, P61626 (protein)
chain: MKALIVLGLVLLSVTVQGKVFERCELARTLKRLGMDGYRGISLANWMCLAKWESGYNTRATNYNAGDRSTDYGIFQINSRYWCNDGKTPGAVNACHLSCSALLQDNIADAVACAKRVVRDPQGIRAWVAWRNRCQNRDVRQYVQGCGV
Turning to B1, the Tm is 68.8 °C and the “heat capacity change of unfolding” value worked out at 1.58 kcal/mol/K. Also, under “68.8 °C”, the “heat capacity change of unfolding” value amounted to 1.58 kcal/mol/K and the “unfolding enthalpy (calorimetric)” value amounted to 120 kcal/mol.

These data come from FireProtDB (doi:10.1021/bi00146a008).
